Results on 3 substances are retold here after article PMC8309178, “Two Novel PET Radiopharmaceuticals for Endothelial Vascular Cell Adhesion Molecule-1 (VCAM-1) Targeting” (Pharmaceutics, 2021).

For data set [1], the target named is T1, VCAM-1 expressed on HUVEC (Homo sapiens, UniProt P19320).
T1 sequence (P19320 25-739): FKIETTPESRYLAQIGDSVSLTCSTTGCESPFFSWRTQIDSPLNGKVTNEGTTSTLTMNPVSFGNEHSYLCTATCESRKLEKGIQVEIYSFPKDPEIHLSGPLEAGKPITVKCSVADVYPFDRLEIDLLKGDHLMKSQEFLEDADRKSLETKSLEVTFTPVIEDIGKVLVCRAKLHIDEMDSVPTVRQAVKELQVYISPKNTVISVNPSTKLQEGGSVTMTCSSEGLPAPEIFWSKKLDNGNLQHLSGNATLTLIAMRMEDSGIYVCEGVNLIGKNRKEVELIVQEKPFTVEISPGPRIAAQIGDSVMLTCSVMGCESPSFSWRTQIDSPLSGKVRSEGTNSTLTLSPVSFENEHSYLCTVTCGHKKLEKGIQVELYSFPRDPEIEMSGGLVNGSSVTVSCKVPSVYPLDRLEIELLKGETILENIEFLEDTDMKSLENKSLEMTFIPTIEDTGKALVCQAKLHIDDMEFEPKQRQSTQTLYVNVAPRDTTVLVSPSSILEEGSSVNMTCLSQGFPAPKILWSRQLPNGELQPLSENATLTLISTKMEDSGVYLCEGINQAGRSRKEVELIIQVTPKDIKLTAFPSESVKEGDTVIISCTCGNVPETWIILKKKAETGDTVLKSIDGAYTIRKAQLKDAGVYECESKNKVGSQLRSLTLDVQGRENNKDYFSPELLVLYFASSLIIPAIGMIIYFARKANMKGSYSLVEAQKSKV
In words: In vitro test of 68Ga-MacroP on HUVEC (LigandTracer radioactive uptake). The conditions noted are these: HUVEC activated with 10 ng/mL TNF-α for 4 h vs unstimulated HUVEC; 5 MBq 68Ga-MacroP in 3 mL saline; LigandTracer White. Details: endogenous in cells; host or cells: primary HUVEC stimulated with 10 ng/mL TNF-alpha for 4 h. It counts as cell-based. The text has this:
(§1) Human Umbilical Vein Endothelial Cells (HUVEC) were obtained from human umbilical cords collected from full-term women immediately after cesarean section at the Gynecology and Obstetrics Department of International Evangelical Hospital in Genoa (Italy), after patients’ informed consent and the approval (register number 2/2010-19, February, 2010) by the Institutional Ethical Committee. Each cord vein was individually processed for obtaining endothelial cells through mechanical dissociation of the tissue and collagenase digestion. Cells were maintained in culture medium EndoGRO-LS Complete Culture Media Kit seeded on attachment factor-coated plates. For labeling experiments, 8 × 10^5 cells were plated on Petri dishes in EndoGRO Basal Medium (SCME-BM) and allowed to attach overnight prior stimulation with 10 ng/mL of TNF-alpha (TNF-α) for 4 h. Cells without TNF-α treatment were used as control (Figures S19 and S20).
The binding assay of ^68Ga-MacroP with VCAM-1 expressed on HUVEC was monitored using LigandTracer® White (Ridgeview Instruments AB, Uppsala, Sweden) according to our previously validated procedure. Briefly, the tool consists of a beta-emission detector and a rotating platform harboring a standard Petri dish. […] The binding of radioactivity to cell-containing areas and reference areas was recorded. […]

The target of data set [2] is T1, VCAM-1 expressed on HUVEC. In words: In vitro test of NAMP-avidin-68Ga-BisDOTA on HUVEC (three-step pretargeting, LigandTracer). It counts as cell-based. Set-up: endogenous in cells; host or cells: primary HUVEC stimulated with TNF-alpha.
Description: as §1, with “Cells without TNF-α treatment were used as control (Figures S19 and S20).” left out
After removing the culture medium containing TNF-α, stimulated HUVEC were incubated at 37 °C with 4 nmol of NAMP for 20 min and afterwards with 3.5 nmol of NeutrAvidin™ for 10 min. After washing and replacing the culture medium with 3 mL of the saline solution containing 5MBq of ^68Ga-BisDOTA (specific activity 37.0 MBq/nmol), the binding assay of ^68Ga-BisDOTA with the NAMP-avidin complex, bound to the VCAM-1 expressed on HUVEC, was monitored using the same procedure described in Section 2.3.5.

Data set [3] concerns the target avidin (Gallus gallus, UniProt P02701). Nature of the data set: NAMP-avidin binding (ultrafiltration, RP-HPLC, capillary electrophoresis). Conditions: approx. 0.17 mM NAMP with avidin 2.5 μg/μL, 37 °C, 2 h; 30 kD cut-off ultrafiltration; RP-HPLC of ultrafiltrate, capillary electrophoresis of retentate. How it is done:
Avidin was dissolved in ultrapure water (2.5 μg/μL). This solution (100 μL) was mixed with a NAMP solution (approx. 0.17 mM) and heated at 37 °C under 400 rpm orbital shaking for 2 h. The mixture was placed in an ultrafiltration system with a regenerated cellulose membrane (30 kD cut-off), and washed with 250 μL of ultrapure water at 1400 g for 20 min at 15 °C. By inverted spinning at 1000 g for 3 min, the retentate was recovered and analyzed by capillary electrophoresis (Agilent Technologies 7100 Capillary Electrophoresis, Santa Clara, CA, USA). Separations were performed in a bare fused-silica capillary 50 μm (i.d.) × 64.5 cm (L) × 50 cm (L), activated with 1 M aqueous NaOH, 0.1 M aqueous NaOH and washed with ultrapure water. The conditioning and the run were carried out with 50 mM sodium phosphate buffer (pH 2.5), used also for 120 s preconditioning before injection. The gradient voltage was from 0 to 30 kV in 0.2 min.

For data set [4] the following is noted: deglycosylated form of avidin; cited from earlier work. As for the experimental part: After radiolabeling with ^68Ga, both MacroP and NAMP were tested on human endothelial cells. Quantitative PCR and Fluorescence-Activated Cell Sorting (FACS) analysis were performed prior to the experiments, to assess the expression of VCAM-1 on HUVEC. To avoid excessive stress for the cells, they were activated with TNF-α for 4 h only. In the three-step pretargeting test, a commercially available deglycosylated form of avidin (NeutrAvidin™) was employed because it is characterized by reduced non-specific binding, low isoelectric point (~6.3) and low production cost with respect to ...

No end group written: not given here. *: point of attachment. maleimido‑mono‑amide‑DOTA = O=C(O)CN1CCN(CC(=O)O)CCN(CC(=O)NCCN2C(=O)CC(*)C2=O)CCN(CC(=O)O)CC1; NAM = N-norbiotinyl-β-maleimidopropionylamide, biotin derivative conjugated to Cys thiol

avidin, sequence (P02701 25-152, species assumed): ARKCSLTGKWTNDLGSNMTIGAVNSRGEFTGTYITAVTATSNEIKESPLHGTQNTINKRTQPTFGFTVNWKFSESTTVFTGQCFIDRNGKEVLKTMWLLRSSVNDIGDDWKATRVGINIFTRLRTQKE

Consider “MacroP: reaction product of maleimido-mono-amide-DOTA with the cysteine thiol of the VCAM-1-binding peptide VHPKQHRGGSKGC (VHPKQHRGGSKGC(maleimido‑mono‑amide‑DOTA))”, for which the “radiosignal uptake of activated cells compared to control cells” value in data set [1] was 4 fold.
“NAMP: biotin derivative: NAM (N-norbiotinyl-β-maleimidopropionylamide) conjugated to the cysteine thiol of VHPKQHRGGSKGC, for three-step pretargeting (VHPKQHRGGSKGC(NAM))”: the “radioactive uptake of activated cells compared to the controls” value in data set [2] (HUVEC activated with 10 ng/mL TNF-α for 4 h vs unstimulated, 4 nmol NAMP 20 min at 37 °C, 3.5 nmol NeutrAvidin 10 min, then 5 MBq 68Ga-BisDOTA in 3 mL saline) came to 12 fold. For the same substance, in data set [2] (TNF-α activated HUVEC vs control, NAMP, then NeutrAvidin and 68Ga-BisDOTA, p < 0.05), the “uptake of radioactivity, activated cells versus control cells (in words)” value was “evidently higher uptake of radioactivity compared to the control cells”. For the same substance, the “avidin binding: unbound NAMP in the ultrafiltrate” value in data set [3] is listed as “no unbound NAMP could be detected”.
In the case of “NeutrAvidin™: commercially available deglycosylated form of avidin”, the isoelectric point in data set [4] is recorded as ~ 6.3.
